Values quoted from earlier work as cited in patent US20230365625A1, “METHODS FOR TREATING AND/OR PREVENTING UNDESIRABLE SEQULAE OF NASAL TURBINOPLASTY OR FUNCTIONAL ENDOSCOPIC SINUS SURGERY” (3-D Matrix, Ltd., priority 2022, published 2023).
Entries after “also recorded” stand apart in the source; their conditions may differ. Read-outs that look alike come from different tables or passages of the source.

Experiments:
[1] = cited from earlier work
[2] = 1% in water; cited from earlier work
[3] = RADA16 2.5%, IEIK13 1.3%, QLEL12 0.15% in water; result in words; cited from earlier work
[4] = cited from earlier work; remark: listed apart in the source
[5] = tested on: punch hole injuries to the liver; settings: pig, in vivo; cited from earlier work
[6] = in solution before DMEM, RADA16 assumed 2.5% wt/vol, IEIK13 concentration unknown

Substance	Storage modulus G′ ([1]; 1% in water) [Pa]	Increase in storage modulus G′ after DMEM treatment relative to before [2] [fold]	Storage modulus after DMEM treatment [2] [Pa]	Effect of gamma-irradiation sterilization [3]	Gel stiffness compared to RADA16 ([4]; exposed to physiological conditions, result in words)	Median loss modulus G″ [4, 6] [Pa]	Median storage modulus G′ [4, 6] [Pa]	Inflammatory cell infiltration due to the gel in the wound [5]	Storage modulus G′ ([1]; 1.5% in water)	Storage modulus G′ ([1]; 2.5% in water) [Pa]
Ac-IEIKIEIKIEIKI-NH2 [IEIK13]	~700	7.4	5314	enhanced the rheological properties	forms a stiffer gel; also recorded: form a stiffer hydrogel matrix	116	1145	absence if inflammatory cell infiltration	–	–
Ac-QLELQLELQLEL-NH2 [QLEL12, self-assembling peptide]	–	–	–	significant degradation and viscosity drop	–	–	–	–	–	–
KLDKLDKLDKLD [KLD12]	–	23.9	–	–	–	–	–	–	about 350 Pa	~700
